Measured values from the supplement of paper PMC10065799, “High-throughput profiling of sequence recognition by tyrosine kinases and SH2 domains using bacterial peptide display” (eLife, 2023).

Key:
c-Src SH2 = experiment: SH2 binding enrichment of the phosphorylated peptide, bacterial display (enrichment ratio); higher = better substrate or ligand; peptides without Tyr show the background
Grb2 SH2 = Grb2 SH2 (UniProt P62993); experiment: as above
SHP2-C SH2 = experiment: as above
MERTK = MERTK (UniProt Q12866); experiment: phosphorylation enrichment, bacterial display (enrichment ratio); higher = better substrate or ligand; peptides without Tyr show the background
MERTK, sequence (Q12866 whole entry, looked up): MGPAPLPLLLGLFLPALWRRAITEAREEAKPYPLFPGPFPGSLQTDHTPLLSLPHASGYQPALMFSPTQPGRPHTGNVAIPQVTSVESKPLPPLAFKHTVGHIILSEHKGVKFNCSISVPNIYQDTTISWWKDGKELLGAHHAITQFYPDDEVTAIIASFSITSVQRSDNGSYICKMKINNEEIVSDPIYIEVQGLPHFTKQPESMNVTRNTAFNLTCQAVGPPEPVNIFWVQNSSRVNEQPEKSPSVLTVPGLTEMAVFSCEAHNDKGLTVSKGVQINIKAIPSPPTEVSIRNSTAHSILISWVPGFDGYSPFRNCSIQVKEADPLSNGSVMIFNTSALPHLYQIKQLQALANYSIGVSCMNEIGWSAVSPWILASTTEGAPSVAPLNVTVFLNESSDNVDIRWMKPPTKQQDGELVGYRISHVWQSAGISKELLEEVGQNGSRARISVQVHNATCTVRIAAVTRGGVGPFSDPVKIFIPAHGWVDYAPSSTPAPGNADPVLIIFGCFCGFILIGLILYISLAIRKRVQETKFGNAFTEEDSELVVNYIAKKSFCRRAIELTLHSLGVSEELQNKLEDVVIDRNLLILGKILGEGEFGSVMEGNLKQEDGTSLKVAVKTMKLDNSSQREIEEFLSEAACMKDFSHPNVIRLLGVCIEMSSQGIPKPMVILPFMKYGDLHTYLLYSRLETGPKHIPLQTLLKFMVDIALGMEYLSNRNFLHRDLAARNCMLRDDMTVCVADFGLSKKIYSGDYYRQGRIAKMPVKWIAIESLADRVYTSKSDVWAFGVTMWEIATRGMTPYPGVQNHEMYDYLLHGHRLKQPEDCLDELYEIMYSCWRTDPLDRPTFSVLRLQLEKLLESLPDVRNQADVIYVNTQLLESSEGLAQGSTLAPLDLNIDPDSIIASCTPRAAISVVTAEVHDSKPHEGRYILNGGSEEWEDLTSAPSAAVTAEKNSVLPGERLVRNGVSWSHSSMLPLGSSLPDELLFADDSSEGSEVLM

Hck = Hck (UniProt P08631); experiment: as above
Hck, sequence (P08631 whole entry, looked up): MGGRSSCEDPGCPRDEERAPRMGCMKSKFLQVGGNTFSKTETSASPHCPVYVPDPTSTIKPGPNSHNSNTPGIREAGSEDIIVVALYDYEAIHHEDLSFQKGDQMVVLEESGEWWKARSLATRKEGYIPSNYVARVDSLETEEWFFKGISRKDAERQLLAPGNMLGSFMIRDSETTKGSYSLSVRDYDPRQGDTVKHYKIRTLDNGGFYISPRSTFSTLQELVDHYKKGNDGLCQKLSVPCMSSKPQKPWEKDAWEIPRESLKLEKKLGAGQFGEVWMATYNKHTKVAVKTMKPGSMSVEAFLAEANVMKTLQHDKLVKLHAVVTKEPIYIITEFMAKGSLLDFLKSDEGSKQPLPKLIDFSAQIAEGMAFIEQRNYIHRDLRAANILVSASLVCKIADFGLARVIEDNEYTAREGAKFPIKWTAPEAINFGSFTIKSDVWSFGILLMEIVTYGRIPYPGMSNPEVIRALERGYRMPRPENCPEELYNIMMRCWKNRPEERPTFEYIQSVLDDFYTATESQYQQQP

c-Src = experiment: as above
Fyn = Fyn (UniProt P06241); experiment: as above
Fyn, sequence (P06241 whole entry, looked up): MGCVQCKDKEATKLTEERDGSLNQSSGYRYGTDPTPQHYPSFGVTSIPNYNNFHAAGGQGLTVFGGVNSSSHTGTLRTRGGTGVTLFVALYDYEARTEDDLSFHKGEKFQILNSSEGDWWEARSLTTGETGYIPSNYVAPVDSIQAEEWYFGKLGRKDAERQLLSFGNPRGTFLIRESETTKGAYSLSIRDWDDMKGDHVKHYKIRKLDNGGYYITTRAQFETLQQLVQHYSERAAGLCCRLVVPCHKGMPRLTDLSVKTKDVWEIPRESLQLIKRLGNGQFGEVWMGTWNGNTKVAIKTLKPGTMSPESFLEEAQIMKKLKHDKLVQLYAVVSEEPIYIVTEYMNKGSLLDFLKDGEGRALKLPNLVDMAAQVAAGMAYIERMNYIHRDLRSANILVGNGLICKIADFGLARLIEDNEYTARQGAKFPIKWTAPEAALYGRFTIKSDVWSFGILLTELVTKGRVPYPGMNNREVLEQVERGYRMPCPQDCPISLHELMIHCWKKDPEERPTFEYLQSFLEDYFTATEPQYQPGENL

EPHB1 = EPHB1 (UniProt P54762); experiment: as above
EPHB2 = EPHB2 (UniProt P29323); experiment: as above
EPHB2, sequence (P29323 whole entry, looked up): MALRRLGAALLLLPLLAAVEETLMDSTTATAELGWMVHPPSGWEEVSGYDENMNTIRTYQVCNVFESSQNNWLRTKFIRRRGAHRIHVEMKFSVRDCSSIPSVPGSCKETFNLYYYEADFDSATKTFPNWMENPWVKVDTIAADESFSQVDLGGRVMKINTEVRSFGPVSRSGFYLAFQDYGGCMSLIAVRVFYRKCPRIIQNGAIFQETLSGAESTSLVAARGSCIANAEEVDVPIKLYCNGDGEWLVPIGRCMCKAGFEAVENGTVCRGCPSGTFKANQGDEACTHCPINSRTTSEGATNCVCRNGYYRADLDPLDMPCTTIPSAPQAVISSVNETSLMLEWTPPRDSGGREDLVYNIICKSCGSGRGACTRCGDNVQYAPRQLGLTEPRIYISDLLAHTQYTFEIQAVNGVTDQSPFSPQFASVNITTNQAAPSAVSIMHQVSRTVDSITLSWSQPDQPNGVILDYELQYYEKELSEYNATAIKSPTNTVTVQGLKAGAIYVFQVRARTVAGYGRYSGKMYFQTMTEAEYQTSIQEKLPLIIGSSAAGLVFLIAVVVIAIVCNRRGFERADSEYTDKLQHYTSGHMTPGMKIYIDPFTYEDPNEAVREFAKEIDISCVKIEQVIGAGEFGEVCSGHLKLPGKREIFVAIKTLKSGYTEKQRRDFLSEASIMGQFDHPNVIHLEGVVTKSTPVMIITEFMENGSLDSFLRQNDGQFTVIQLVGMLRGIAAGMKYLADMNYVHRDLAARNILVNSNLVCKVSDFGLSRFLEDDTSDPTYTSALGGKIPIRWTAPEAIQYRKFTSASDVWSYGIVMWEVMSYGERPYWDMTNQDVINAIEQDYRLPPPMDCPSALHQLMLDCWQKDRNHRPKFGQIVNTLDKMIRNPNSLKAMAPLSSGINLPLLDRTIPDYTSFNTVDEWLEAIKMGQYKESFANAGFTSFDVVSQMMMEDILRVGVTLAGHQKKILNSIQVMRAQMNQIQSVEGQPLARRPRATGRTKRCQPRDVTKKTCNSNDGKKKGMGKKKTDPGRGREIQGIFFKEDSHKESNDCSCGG

FGFR3 = FGFR3 (UniProt P22607); experiment: as above
FGFR3, sequence (P22607 whole entry, looked up): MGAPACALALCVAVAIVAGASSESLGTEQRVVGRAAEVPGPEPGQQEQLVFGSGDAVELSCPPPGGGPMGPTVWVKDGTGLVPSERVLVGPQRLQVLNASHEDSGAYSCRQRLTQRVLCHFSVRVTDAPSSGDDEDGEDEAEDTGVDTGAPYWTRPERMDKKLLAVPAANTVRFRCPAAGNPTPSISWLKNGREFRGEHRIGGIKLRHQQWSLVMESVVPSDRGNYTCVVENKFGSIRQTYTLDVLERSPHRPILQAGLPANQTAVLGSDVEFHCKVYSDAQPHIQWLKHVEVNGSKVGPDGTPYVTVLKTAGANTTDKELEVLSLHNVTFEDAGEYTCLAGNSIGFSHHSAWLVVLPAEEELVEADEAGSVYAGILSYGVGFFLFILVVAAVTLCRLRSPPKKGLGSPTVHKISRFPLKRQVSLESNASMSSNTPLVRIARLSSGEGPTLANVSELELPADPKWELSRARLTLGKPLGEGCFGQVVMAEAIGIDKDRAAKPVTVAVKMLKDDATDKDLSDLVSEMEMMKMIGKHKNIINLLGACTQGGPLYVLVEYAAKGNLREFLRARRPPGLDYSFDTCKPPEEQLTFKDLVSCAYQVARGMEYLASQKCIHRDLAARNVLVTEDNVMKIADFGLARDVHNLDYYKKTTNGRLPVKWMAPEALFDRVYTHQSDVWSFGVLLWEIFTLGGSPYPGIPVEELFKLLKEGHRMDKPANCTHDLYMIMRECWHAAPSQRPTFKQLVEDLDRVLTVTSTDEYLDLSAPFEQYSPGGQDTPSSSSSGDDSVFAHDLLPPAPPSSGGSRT

Jak2 = Jak2 (UniProt O60674); experiment: as above
FGFR1 = FGFR1 (UniProt P11362); experiment: as above
Fer (mouse) = experiment: as above
Fes = Fes (UniProt P07332); experiment: as above
Fes, sequence (P07332 whole entry, looked up): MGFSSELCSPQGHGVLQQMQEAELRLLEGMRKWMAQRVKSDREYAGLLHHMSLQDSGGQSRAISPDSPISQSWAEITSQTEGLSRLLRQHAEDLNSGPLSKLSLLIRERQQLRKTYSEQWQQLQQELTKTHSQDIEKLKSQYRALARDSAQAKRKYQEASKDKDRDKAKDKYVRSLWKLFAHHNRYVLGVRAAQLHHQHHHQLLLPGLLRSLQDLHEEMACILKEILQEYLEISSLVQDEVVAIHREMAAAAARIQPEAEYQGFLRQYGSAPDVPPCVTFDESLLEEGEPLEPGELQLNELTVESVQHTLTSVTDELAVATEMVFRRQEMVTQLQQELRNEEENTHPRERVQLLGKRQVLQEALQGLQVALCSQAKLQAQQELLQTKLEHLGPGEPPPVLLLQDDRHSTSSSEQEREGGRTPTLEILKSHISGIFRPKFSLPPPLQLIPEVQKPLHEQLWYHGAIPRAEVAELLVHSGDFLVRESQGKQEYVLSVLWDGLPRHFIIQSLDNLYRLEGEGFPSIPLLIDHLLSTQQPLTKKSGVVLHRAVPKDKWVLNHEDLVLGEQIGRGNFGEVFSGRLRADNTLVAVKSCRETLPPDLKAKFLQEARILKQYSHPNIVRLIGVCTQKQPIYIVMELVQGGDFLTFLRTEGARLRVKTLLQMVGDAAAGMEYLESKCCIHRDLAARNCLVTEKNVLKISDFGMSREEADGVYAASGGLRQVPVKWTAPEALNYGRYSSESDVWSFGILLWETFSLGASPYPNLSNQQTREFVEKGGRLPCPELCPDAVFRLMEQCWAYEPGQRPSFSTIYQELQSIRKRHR

c-Abl (mouse) = experiment: as above
AncSZ = experiment: as above
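Wherever SH2 binding enrichment of the phosphorylated peptide, bacterial display is given: peptide library displayed on the E. coli surface as eCPX fusions, selected cells deep-sequenced, score is each peptide's frequency after selection divided by its frequency in the input.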
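Wherever phosphorylation enrichment, bacterial display is given: 11-residue human phosphosite peptides and single-mutation variants displayed on the E. coli surface, counted by deep sequencing, each peptide's frequency after selection divided by its frequency in the unselected input library; frequency after pTyr selection over input frequency; kinase dosed for 20-30% of maximal phosphorylation in three min.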

Grb2 SH2, sequence (P62993 whole entry, looked up): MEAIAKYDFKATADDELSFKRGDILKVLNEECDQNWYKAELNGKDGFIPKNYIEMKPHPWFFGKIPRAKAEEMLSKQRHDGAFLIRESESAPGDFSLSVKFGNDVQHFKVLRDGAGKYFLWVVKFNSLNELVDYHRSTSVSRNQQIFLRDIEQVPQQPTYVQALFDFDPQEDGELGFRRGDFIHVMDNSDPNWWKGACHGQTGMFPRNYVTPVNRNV

Row | Sequence | SH2 binding enrichment (c-Src SH2) | SH2 binding enrichment (Grb2 SH2) | SH2 binding enrichment (SHP2-C SH2) | phosphorylation enrichment (MERTK) | phosphorylation enrichment (Hck) | phosphorylation enrichment (c-Src) | phosphorylation enrichment (Fyn) | phosphorylation enrichment (EPHB1) | phosphorylation enrichment (EPHB2) | phosphorylation enrichment (FGFR3) | phosphorylation enrichment (Jak2) | phosphorylation enrichment (FGFR1) | phosphorylation enrichment (Fer (mouse)) | phosphorylation enrichment (Fes) | phosphorylation enrichment (c-Abl (mouse)) | phosphorylation enrichment (AncSZ)
1 | LGGAMYYLEAD [PKHD1_Y452_E457D] | 1.1 | 0.83 | 0.762 | 1.62 | 1.08 | 1.86 | 1.7 | 0.839 | 0.672 | 1.6 | 1.19 | 1.36 | 0.664 | 1.48 | 0.956 | 1.39
2 | SDLTDYLMKIL [ACTA1_Y190_R185S] | 0.608 | 1.16 | 0.903 | 0.445 | 0.571 | 0.507 | 0.535 | 0.578 | 0.648 | 0.732 | 1.1 | 0.532 | 0.582 | 1.22 | 0.789 | 1.14
3 | ISSLPYMKMIF [SLC4A11_Y853_M848I] | 1.61 | 1.19 | 1.52 | 0.668 | 0.677 | 0.79 | 0.457 | 0.536 | 0.547 | 0.665 | 1.35 | 0.696 | 1.11 | 1.07 | 0.872 | 1.05
4 | SEELHYFVQNH [UQCRC2_Y207] | 0.587 | 0.806 | 0.819 | 0.841 | 0.524 | 0.685 | 0.523 | 0.647 | 0.661 | 1.39 | 1.08 | 1.12 | 0.562 | 1.16 | 1.07 | 1.45
5 | FLTQHYDAEPQ [ANG_Y38_K41E] | 0.612 | 0.992 | 0.635 | 0.502 | 0.534 | 0.601 | 0.478 | 0.413 | 0.554 | 0.684 | 0.627 | 0.583 | 0.511 | 0.989 | 0.785 | 0.853
6 | SAVTGYRVDVI [FN1_Y937] | 0.452 | 0.84 | 0.514 | 0.358 | 0.374 | 0.353 | 0.425 | 0.368 | 0.377 | 0.534 | 0.616 | 0.398 | 0.335 | 0.566 | 0.432 | 0.546
7 | ICGVSYDEYRY [CFTR_Y512_F508C] | 1.77 | 0.751 | 0.681 | 0.463 | 0.633 | 1.11 | 0.637 | 0.733 | 0.704 | 1.01 | 1.26 | 0.478 | 0.599 | 1.58 | 0.943 | 1.46
8 | HNGVSYYINLC [IGF2R_Y2024] | 0.431 | 1.14 | 1 | 0.513 | 0.597 | 0.419 | 0.581 | 0.805 | 0.541 | 1.1 | 1.35 | 0.605 | 0.577 | 1.5 | 1.15 | 1.43
9 | RTTKTYFPHFD [HBA1_Y43_P38R] | 1.23 | 1.28 | 1.18 | 0.87 | 0.569 | 1.24 | 0.418 | 1.1 | 0.527 | 1.17 | 2.09 | 0.914 | 0.458 | 0.86 | 0.884 | 0.967
10 | LKMLVYMDMSK [LRRC7_Y234_L235M] | 0.661 | 0.849 | 0.742 | 0.689 | 0.802 | 0.872 | 0.807 | 1.79 | 0.804 | 0.984 | 1.85 | 1.02 | 0.842 | 2.25 | 1.23 | 1.45
11 | TGGLEYIVPLM [CLCN4_Y548] | 0.52 | 0.869 | 0.675 | 0.364 | 0.42 | 0.417 | 0.436 | 0.797 | 0.787 | 2.29 | 2.32 | 3 | 0.379 | 0.965 | 0.937 | 2.14
12 | ALMGLYHGQVL [HADHA_Y343] | 0.647 | 1.15 | 0.89 | 0.648 | 1.64 | 1.28 | 0.728 | 0.545 | 0.649 | 0.641 | 0.596 | 0.625 | 0.678 | 0.823 | 0.679 | 0.605
13 | AQESNYRLLRQ [SLC20A2_Y377_R382Q] | 0.405 | 0.891 | 1.54 | 0.488 | 0.478 | 0.397 | 0.391 | 0.785 | 0.534 | 0.445 | 0.754 | 0.411 | 0.479 | 0.737 | 0.634 | 0.616
14 | RRYVYYYSYLL [PTEN_Y177] | 0.474 | 0.631 | 0.65 | 3.68 | 0.764 | 0.79 | 0.771 | 0.672 | 0.829 | 1.11 | 0.986 | 1.88 | 0.518 | 0.768 | 1.39 | 0.814
15 | DIPIRYSIMGV [CDH4_Y205_T208M] | 1.31 | 0.894 | 2.51 | 0.523 | 0.352 | 0.448 | 0.455 | 0.473 | 0.603 | 0.695 | 1 | 0.481 | 0.421 | 1.14 | 0.723 | 1.13
16 | ARIVDYNIIGW [MYH7_Y588_G584R] | 0.874 | 0.735 | 0.607 | 0.454 | 0.56 | 0.445 | 0.545 | 0.542 | 0.662 | 0.839 | 0.671 | 0.81 | 0.406 | 0.846 | 0.561 | 0.808
17 | LDLSYYHTSSS [EMD_Y182_P183H] | 1.19 | 1.26 | 1.36 | 0.634 | 0.452 | 0.676 | 0.509 | 0.516 | 0.614 | 1.22 | 1.51 | 1.11 | 0.451 | 0.977 | 0.672 | 0.929
18 | NKYVAYIESQG [KDM4B_Y34] | 0.676 | 0.755 | 1.51 | 0.449 | 0.413 | 0.437 | 0.407 | 0.554 | 0.472 | 0.625 | 0.827 | 0.567 | 0.422 | 0.885 | 0.692 | 0.893
19 | ADARMYGVLPR [PLP1_Y207_W212R] | 0.557 | 0.661 | 0.629 | 0.405 | 3.23 | 0.727 | 0.536 | 0.378 | 0.477 | 0.44 | 0.398 | 0.467 | 0.385 | 0.467 | 0.481 | 0.598
20 | FQNSLYAPDFS [FAM92A_Y226_R222Q_YF] | 0.591 | 0.891 | 0.614 | 7.8 | 2.12 | 2.18 | 2.08 | 4.07 | 4.54 | 1.47 | 1.08 | 1.48 | 3.35 | 0.945 | 0.781 | 0.9
21 | PGQRVYVVAES [SHH_Y316_R321S] | 0.55 | 0.756 | 0.892 | 0.377 | 0.748 | 0.546 | 0.538 | 0.695 | 0.507 | 0.848 | 1.07 | 0.494 | 0.728 | 1.45 | 0.896 | 1.06
22 | MLNTNYHLPPS [MT-ATP8_Y33] | 0.515 | 1 | 0.67 | 0.757 | 0.297 | 0.354 | 0.384 | 0.617 | 0.514 | 2.43 | 0.502 | 3.4 | 0.327 | 0.526 | 0.556 | 0.705
23 | KHCEDYVCSFN [DSC1_Y846_YF] | 0.809 | 1.06 | 0.87 | 0.424 | 0.446 | 0.829 | 0.473 | 0.564 | 0.522 | 0.681 | 1.13 | 0.572 | 0.525 | 1.08 | 0.719 | 1.15
24 | LARDMHDKEFF [MET_Y1230_Y1230H_YF] | 0.423 | 0.884 | 0.668 | 0.907 | 0.812 | 0.671 | 0.821 | 0.723 | 0.757 | 0.661 | 1.15 | 0.625 | 0.362 | 0.864 | 0.91 | 1.08
25 | LGPSDYFGEIA [PRKAR1A_Y323] | 0.51 | 0.878 | 0.599 | 0.605 | 0.602 | 0.68 | 0.705 | 0.696 | 0.727 | 1.12 | 1.08 | 1.39 | 0.579 | 1.14 | 0.746 | 1.76
26 | FLGEEYVKAVG [TF_Y674_YF] | 0.445 | 0.785 | 1.46 | 0.412 | 0.405 | 0.404 | 0.373 | 0.489 | 0.453 | 0.582 | 0.853 | 0.453 | 0.58 | 0.879 | 0.598 | 0.842
27 | KDPPDYKFQPR [SOX9_Y172_H169P_YF] | 0.609 | 0.928 | 0.791 | 0.461 | 0.414 | 0.43 | 0.439 | 0.343 | 0.44 | 0.527 | 0.719 | 0.427 | 0.449 | 0.789 | 0.626 | 0.811
28 | TTASRYLKVSD [MYOM2_Y871_N869S] | 0.515 | 0.534 | 0.54 | 0.313 | 0.311 | 0.362 | 0.373 | 0.347 | 0.293 | 0.467 | 0.434 | 0.366 | 0.377 | 0.636 | 0.54 | 0.489
29 | CGLPRYRWLTH [TSPAN12_Y143_Y138C] | 0.442 | 0.838 | 0.536 | 0.461 | 0.525 | 0.357 | 0.707 | 0.47 | 0.645 | 0.476 | 0.669 | 0.435 | 0.438 | 0.929 | 0.453 | 0.848
